According to patent US20100136710A1:

Target: 3′-end processing factors
Assay: immunoprecipitation under standard salt conditions

Substance human tRNA splicing endonuclease has a percent of the 3′-end processing factors associated of less than 1%.
